Reference: patent US12122842 (R AND D SYSTEMS, dated 2024)

Tests used:
[1] = biological target: T1, recombinant human CD30 protein (UniProt P28908 19-385); assay: SPR
T1 chain: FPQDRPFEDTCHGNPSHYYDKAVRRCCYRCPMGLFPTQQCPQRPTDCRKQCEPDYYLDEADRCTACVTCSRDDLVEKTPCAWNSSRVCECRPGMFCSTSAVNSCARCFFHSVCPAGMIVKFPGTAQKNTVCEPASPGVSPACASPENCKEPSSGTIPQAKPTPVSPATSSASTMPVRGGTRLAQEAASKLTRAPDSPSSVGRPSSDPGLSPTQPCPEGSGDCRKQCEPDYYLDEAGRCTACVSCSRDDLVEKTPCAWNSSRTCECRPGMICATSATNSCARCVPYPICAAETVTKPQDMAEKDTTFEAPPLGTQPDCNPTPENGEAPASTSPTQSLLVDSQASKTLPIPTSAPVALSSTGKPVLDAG

[2] = biological target: T2, human CD30/TNFRSF8 on Jurkat human acute T cell leukemia cells (Clone E6-1) (human, UniProt P28908 19-595); assay: flow cytometry on Jurkat cells, PE anti-mouse IgG secondary
T2 construct: Endogenous CD30 on Jurkat cells; also called hCD30; hCD30/TNFRSF8
T2 sequence: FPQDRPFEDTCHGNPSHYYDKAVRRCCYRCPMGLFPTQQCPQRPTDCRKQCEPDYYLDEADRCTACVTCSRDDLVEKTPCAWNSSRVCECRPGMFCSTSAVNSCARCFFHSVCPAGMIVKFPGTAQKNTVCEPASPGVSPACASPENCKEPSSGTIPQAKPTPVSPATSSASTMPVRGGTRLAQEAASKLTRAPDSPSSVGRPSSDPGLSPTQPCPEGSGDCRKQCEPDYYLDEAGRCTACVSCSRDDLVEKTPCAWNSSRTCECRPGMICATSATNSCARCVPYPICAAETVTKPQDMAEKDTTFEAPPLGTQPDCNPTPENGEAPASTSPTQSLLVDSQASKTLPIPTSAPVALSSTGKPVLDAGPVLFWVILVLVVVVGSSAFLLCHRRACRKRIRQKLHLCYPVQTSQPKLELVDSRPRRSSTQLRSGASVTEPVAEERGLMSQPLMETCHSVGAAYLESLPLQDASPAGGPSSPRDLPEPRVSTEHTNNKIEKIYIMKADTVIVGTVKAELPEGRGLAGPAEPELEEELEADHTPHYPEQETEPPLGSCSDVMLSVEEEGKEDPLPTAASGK
Description: Jurkat human acute T cell leukemia cell line (Clone E6-1, ATCC Catalog #TIB-152) was stained with Mouse Anti-Human CD30 Monoclonal Antibody (Clone 81316.11, filled histogram) or isotype control antibody (Catalog #MAB002, open histogram), followed by Phycoerythrin-conjugated Anti-Mouse IgG Secondary Antibody (Catalog #F0102B).
Jurkat cells were harvested and washed two times in 2 mL of 1x flow staining buffer (FC001). The cells were resuspended in 1x flow staining buffer to a concentration of ~1.0×10⁶ cells/mL. About 90 µL of the cell suspension was added to each flow tube. About 10 µL of either 25 µg/mL Msxh CD30 or MsIgG1 was added to the appropriate tube, and the tubes were vortexed and then incubated for 20 minutes at room temperature. Cells were washed two times in 2 mL of 1× flow staining buffer. About 10 µL of goat anti-Mouse IgG PE secondary antibody was added to each tube, vortexed, and then incubated in the dark for 20 minutes at room temperature. Cells were washed two times in 2 mL of 1× flow staining buffer. 100 µL of 2× Sytox Blue Dead Cell Stain (ThermoFisher, S34857) was added and the cells were analyzed by flow cytometry.

Kd [1]: 5.1 nM | binding result [2]: binds
B1: Mouse Anti-Human CD30 Monoclonal Antibody (Clone 81316.11) (antibody, V domains shown)
VH: QVQLKESGPGLVAPSQSLSITCTVSGFSLTSYGVHWVRQPPGKGLEWLGVIWAGETINYNLALMSRLSISKDNSKSQVFLKMNSLQTEDTAMYYCARDQGEYGNYGWYFDVWGAGTTVTVSS
VL: DIQMTQTTSSLSASLGDRVTISCSASQGISNYLNWYQQKPDGTVKLLIYYTSSLHSGVPSRFSGSGSGTDYSLTISNLEPEDIATYYCQHYSKLPPTFGGGTKLEIKR
notes: It is a mouse monoclonal, and the isotype control used beside it is MsIgG1; also called anti-hCD30 antibody; recombinant hCD30 antibody
